Measurements from PMC4829898.

Molecular target: recombinant soluble tetrameric neuraminidase (tetNA) (Staphylothermus marinus | influenza A virus A/Belgium/2009 (H1N1, 2009 pandemic))
Assay: SEC

## recombinant soluble tetrameric neuraminidase (tetNA) (enzyme)
  stoichiometry N: 4
